Data: patent US20230103631A1, “PEPTIDES AS SELECTIVE GIP RECEPTOR AGONISTS” (Sanofi, priority 2020, published 2023)
*1 amine or outer side, *2 acyl side, *3 side chain or, on linkers, in order; H or OH if unused. Where no end group is shown, it is not given here. Side-chain parts run from the residue outwards. [ ]: non-standard residue; d: D form. The star is where a group is joined. C20 diacid = O=C(O)CCCCCCCCCCCCCCCCCCC(=O)*; C18 diacid = O=C(O)CCCCCCCCCCCCCCCCC(=O)*; γGlu = O=C(O)[C@H](CCC(=O)[*:2])N[*:1]; AEEA = NCCOCCOCC(=O)O; Aib = CC(C)(N)C(=O)O

B1: SEQ ID NO: 4 (peptide)
peptide: Y[Aib]EGTFISDLSI[Aib]K([AEEA-AEEA-γGlu-C18 diacid])DRIHQ[Aib]EFIEWLLAQGPSSGAPPPS-NH2
modifications: N-terminus assumed
SMILES: CC[C@H](C)[C@H](NC(=O)[C@H](CCCNC(=N)N)NC(=O)[C@H](CC(=O)O)NC(=O)[C@H](CCCCNC(=O)COCCOCCNC(=O)COCCOCCNC(=O)CC[C@H](NC(=O)CCCCCCCCCCCCCCCCC(=O)O)C(=O)O)NC(=O)C(C)(C)NC(=O)[C@@H](NC(=O)[C@H](CO)NC(=O)[C@H](CC(C)C)NC(=O)[C@H](CC(=O)O)NC(=O)[C@H](CO)NC(=O)[C@@H](NC(=O)[C@H](Cc1ccccc1)NC(=O)[C@@H](NC(=O)CNC(=O)[C@H](CCC(=O)O)NC(=O)C(C)(C)NC(=O)[C@@H](N)Cc1ccc(O)cc1)[C@@H](C)O)[C@@H](C)CC)[C@@H](C)CC)C(=O)N[C@@H](Cc1c[nH]cn1)C(=O)N[C@@H](CCC(N)=O)C(=O)NC(C)(C)C(=O)N[C@@H](CCC(=O)O)C(=O)N[C@@H](Cc1ccccc1)C(=O)N[C@H](C(=O)N[C@@H](CCC(=O)O)C(=O)N[C@@H](Cc1c[nH]c2ccccc12)C(=O)N[C@@H](CC(C)C)C(=O)N[C@@H](CC(C)C)C(=O)N[C@@H](C)C(=O)N[C@@H](CCC(N)=O)C(=O)NCC(=O)N1CCC[C@H]1C(=O)N[C@@H](CO)C(=O)N[C@@H](CO)C(=O)NCC(=O)N[C@@H](C)C(=O)N1CCC[C@H]1C(=O)N1CCC[C@H]1C(=O)N1CCC[C@H]1C(=O)N[C@@H](CO)C(N)=O)[C@@H](C)CC
notes: Exendin-4 derived synthetic lipidated peptide of formula I
B2: SEQ ID NO: 7 (peptide)
peptide: Y[Aib]EGTFISDLSI[Aib]K([AEEA-AEEA-γGlu-C20 diacid])DRIHQ[Aib]EFIEWLLAQGPSSGAPPPS-NH2
modifications: N-terminus assumed
SMILES: CC[C@H](C)[C@H](NC(=O)[C@H](CCCNC(=N)N)NC(=O)[C@H](CC(=O)O)NC(=O)[C@H](CCCCNC(=O)COCCOCCNC(=O)COCCOCCNC(=O)CC[C@H](NC(=O)CCCCCCCCCCCCCCCCCCC(=O)O)C(=O)O)NC(=O)C(C)(C)NC(=O)[C@@H](NC(=O)[C@H](CO)NC(=O)[C@H](CC(C)C)NC(=O)[C@H](CC(=O)O)NC(=O)[C@H](CO)NC(=O)[C@@H](NC(=O)[C@H](Cc1ccccc1)NC(=O)[C@@H](NC(=O)CNC(=O)[C@H](CCC(=O)O)NC(=O)C(C)(C)NC(=O)[C@@H](N)Cc1ccc(O)cc1)[C@@H](C)O)[C@@H](C)CC)[C@@H](C)CC)C(=O)N[C@@H](Cc1c[nH]cn1)C(=O)N[C@@H](CCC(N)=O)C(=O)NC(C)(C)C(=O)N[C@@H](CCC(=O)O)C(=O)N[C@@H](Cc1ccccc1)C(=O)N[C@H](C(=O)N[C@@H](CCC(=O)O)C(=O)N[C@@H](Cc1c[nH]c2ccccc12)C(=O)N[C@@H](CC(C)C)C(=O)N[C@@H](CC(C)C)C(=O)N[C@@H](C)C(=O)N[C@@H](CCC(N)=O)C(=O)NCC(=O)N1CCC[C@H]1C(=O)N[C@@H](CO)C(=O)N[C@@H](CO)C(=O)NCC(=O)N[C@@H](C)C(=O)N1CCC[C@H]1C(=O)N1CCC[C@H]1C(=O)N1CCC[C@H]1C(=O)N[C@@H](CO)C(N)=O)[C@@H](C)CC
notes: as for B1

Legend:
human GIP receptor [1] = biological target: T1, human GIP receptor (human, UniProt P48546 22-466); assay: cell-based or functional assay
T1 sequence (looked up): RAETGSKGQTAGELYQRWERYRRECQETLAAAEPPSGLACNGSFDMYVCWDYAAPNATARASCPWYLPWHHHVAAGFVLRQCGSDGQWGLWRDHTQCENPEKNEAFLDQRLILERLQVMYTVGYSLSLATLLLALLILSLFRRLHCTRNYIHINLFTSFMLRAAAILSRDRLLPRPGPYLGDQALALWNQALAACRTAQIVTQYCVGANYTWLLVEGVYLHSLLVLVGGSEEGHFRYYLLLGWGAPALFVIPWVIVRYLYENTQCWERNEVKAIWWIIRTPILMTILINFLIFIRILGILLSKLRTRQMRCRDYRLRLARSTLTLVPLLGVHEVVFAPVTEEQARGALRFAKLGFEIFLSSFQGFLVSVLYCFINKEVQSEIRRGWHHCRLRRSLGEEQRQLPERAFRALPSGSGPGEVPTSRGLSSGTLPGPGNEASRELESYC

human GLP-1 receptor [2] = biological target: T2, human GLP-1 receptor (human, UniProt P43220 24-463); assay: cell-based or functional assay
human GLP-1 receptor [3] = biological target: T2, human GLP-1 receptor; assay: displacement of [125I]GLP-1 from hGLP-1R HEK-293 membranes, SPA
human GIP receptor [4] = biological target: T1, human GIP receptor; assay: cell-based or functional assay; remark: listed apart in the source

Row | Binder | EC50 hGIPR 0% HSA, cAMP in HEK-293 cells (human GIP receptor [1]) | EC50 hGIPR 0.1% HSA, cAMP in HEK-293 cells (human GIP receptor [1]) | EC50 hGLP-1R 0% HSA, cAMP in HEK-293 cells (human GLP-1 receptor [2]) | IC50 (human GLP-1 receptor [3]) | hGIPR EC50, cAMP in human adipocytes (human GIP receptor [4]) | hGIPR Emax, cAMP in human adipocytes (human GIP receptor [4])
1 | B1 | 0.12 pM | 0.88 pM | > 10000 pM | 144000 pM | 500 pM | 116%
2 | B2 | 0.17 pM | 2.86 pM | > 10000 pM | 105000 pM | 300 pM | 121%
